This test concerns the target Full-length (FL) BRAF purified from HEK293F cells (UniProt P15056). Put plainly: SPR; OpenSPR; His/MBP-NT1-4 or FL-BRAF immobilised on Ni-NTA sensor, KRAS-GMPPNP (GST-tagged or untagged) or GST alone flowed at 30 μL/min for 10 min; 20 mM HEPES pH 7.4, 150 mM NaCl, 0.23% glycerol, 0.05% Tween-20, 1% BSA; 1:1 fit. For orientation: Surface plasmon resonance follows binding to a sensor surface in real time, without labels.

The record followed here is paper doi:10.1101/2023.04.24.538112.

Full-length (FL) BRAF purified from HEK293F cells, sequence (P15056 whole entry): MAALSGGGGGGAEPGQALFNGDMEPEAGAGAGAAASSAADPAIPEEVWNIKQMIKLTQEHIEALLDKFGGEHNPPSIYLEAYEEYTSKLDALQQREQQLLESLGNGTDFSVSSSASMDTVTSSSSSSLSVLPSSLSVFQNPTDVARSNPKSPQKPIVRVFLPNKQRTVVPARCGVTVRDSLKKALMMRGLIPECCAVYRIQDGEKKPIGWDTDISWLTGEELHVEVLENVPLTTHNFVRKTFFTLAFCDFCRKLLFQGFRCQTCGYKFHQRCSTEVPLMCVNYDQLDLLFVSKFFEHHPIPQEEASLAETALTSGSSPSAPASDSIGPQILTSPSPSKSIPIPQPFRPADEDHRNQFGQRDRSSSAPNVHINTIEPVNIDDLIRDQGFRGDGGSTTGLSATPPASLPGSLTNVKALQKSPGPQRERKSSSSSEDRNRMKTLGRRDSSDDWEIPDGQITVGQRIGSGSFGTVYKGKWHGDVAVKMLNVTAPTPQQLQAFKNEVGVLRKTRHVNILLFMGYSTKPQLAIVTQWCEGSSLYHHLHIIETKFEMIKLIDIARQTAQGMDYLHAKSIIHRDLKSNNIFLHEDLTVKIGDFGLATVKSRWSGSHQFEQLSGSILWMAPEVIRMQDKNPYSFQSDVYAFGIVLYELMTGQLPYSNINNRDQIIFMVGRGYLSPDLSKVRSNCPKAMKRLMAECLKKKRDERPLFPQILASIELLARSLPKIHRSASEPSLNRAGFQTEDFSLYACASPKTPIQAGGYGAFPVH

Turning to “GST-tagged, dimeric full-length KRAS4b (from UniProt P01116-2 1-188) (natural protein)”, the Kd (commonly the constant that tells how readily two partners part at equilibrium) stood at 101 nM.
